Measurements reported in the supplement of paper PMC7877785.
± gives the uncertainty stated by the source.

Experiment: self-splicing fitness, log relative to wild type (ln ratio); higher = more splicing; Tetrahymena group I intron in knt gene, E. coli kanamycin selection, DiMSum; sequences stand for … in CUCUCU…GGAGGGAAAAGUUAUCAGGCAUGCACCUGGUAGCUAGUCUUUAAACCAAUAGAUUGCAUCGGUUUAAAAGGCAAGACCGUCAAAUUGCGGGAAAGGGGUCAACAGCCGUUCAGUACCAAGUCUCAGGGGAAACUUUGAGAUGGCCUUGCAAAGGGUAUGGUAAUAAGCUGACGGACAUGGUCCUAACCACGCAGCCAAGUCCUAAGUCAACAGAUCUUCUGUUGAUAUGGAUGCAGUUCACAGACUAAAUGUCGGUCGGGGAAGAUGUAUUCUUCUCAUAAGAUAUAGUCGGACCUCUCCUUAAUGGGAGCUAGCGGAUGAAGUGAUGCAACACUGGAGCCGCUGGGAACUAAUUUGUAUGCGAAAGUAUAUUGAUUAGUUUUGGAGUACUCGUGGUCG
Method in brief: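 Six replicate transformations of E. coli BL21(DE3) with a pET-22b(+) library were grown overnight at 37°C or 30°C. The library randomised all eight P1ex-region intron nucleotides, the intron lying in the knt kanamycin-resistance gene, and plates were LB agar with or without 25 μg/mL kanamycin plus 100 μg/mL carbenicillin, 50 μM IPTG and 0.2% rhamnose. Pooled colonies were amplicon-sequenced on an Illumina HiSeq 2500, and fitness is the DiMSum error-weighted combination of wild-type-normalised replicate fold changes, kanamycin versus none.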

Row | Sequence | self-splicing fitness (ln) (30 °C) | self-splicing fitness (ln) (37 °C)
1 | GCGCAGCAAUAUUACGGAAG | -1.64 ± 0.12 | -1.66 ± 0.11
2 | CCUCAGCAAUAUUACGAUCG | -0.809 ± 0.1 | -0.00907 ± 0.14
3 | UGUCAGCAAUAUUACGGGCC | -0.854 ± 0.12 | -0.00781 ± 0.16
4 | GGUCAGCAAUAUUACGGUGA | -0.695 ± 0.074 | -1 ± 0.11
5 | GCGGAGCAAUAUUACGGGGA | -2.69 ± 0.39 | -3.38 ± 0.42
6 | CAGAAGCAAUAUUACGUUUG | -3.42 ± 0.19 | -2.54 ± 0.2
7 | AUGAAGCAAUAUUACGUUUU | -2.36 ± 0.12 | -1.7 ± 0.15
8 | GCCAAGCAAUAUUACGGUGG | -3.54 ± 0.15 | -1.26 ± 0.14
9 | AACCAGCAAUAUUACGACAA | -1.14 ± 0.12 | -0.155 ± 0.12
10 | CGCUAGCAAUAUUACGAUAU | -3.98 ± 0.36 | -2.63 ± 0.25
11 | GAAGAGCAAUAUUACGACGC | -1.55 ± 0.15 | 0.291 ± 0.16
12 | AAUGAGCAAUAUUACGUUAG | -3.2 ± 0.21 | -2.3 ± 0.25
13 | ACUCAGCAAUAUUACGAGAG | -2.02 ± 0.14 | -0.637 ± 0.12
14 | GAAAAGCAAUAUUACGCCUU | -0.813 ± 0.11 | -0.558 ± 0.13
15 | ACUCAGCAAUAUUACGCCCU | -0.136 ± 0.15 | 0.51 ± 0.17
16 | ACGCAGCAAUAUUACGAACA | -1.75 ± 0.081 | -1.36 ± 0.086
17 | GUCCAGCAAUAUUACGAAUG | -2.65 ± 0.17 | -1.31 ± 0.15
18 | AAGCAGCAAUAUUACGGUAC | -3.08 ± 0.23 | -2.49 ± 0.22
19 | UCCUAGCAAUAUUACGUCCA | -3.15 ± 0.48 | -1.56 ± 0.34
20 | UUACAGCAAUAUUACGAACC | -1.61 ± 0.4 | –
21 | GGCUAGCAAUAUUACGGAGC | -3.22 ± 0.22 | -2.25 ± 0.26
22 | GGUGAGCAAUAUUACGUCCA | -2.91 ± 0.24 | -2.07 ± 0.096
23 | AGGCAGCAAUAUUACGGACG | -0.899 ± 0.067 | -0.218 ± 0.095
24 | CGUGAGCAAUAUUACGCAGG | -1.54 ± 0.11 | -2.14 ± 0.15

Row | Sequence | self-splicing fitness (ln) (30 °C) | self-splicing fitness (ln) (37 °C)
25 | GGUUAGCAAUAUUACGGGGA | -2.05 ± 0.25 | -2.49 ± 0.29
26 | GAAUAGCAAUAUUACGAAGA | -2.78 ± 0.33 | -1.45 ± 0.25
27 | CGUUAGCAAUAUUACGCAGU | – | -2.29 ± 0.37
28 | CUGUAGCAAUAUUACGGUCG | -0.455 ± 0.09 | 0.323 ± 0.12
29 | CGCAAGCAAUAUUACGGACA | -0.905 ± 0.14 | -0.195 ± 0.14
30 | AUAUAGCAAUAUUACGCGGG | -2.72 ± 0.38 | -1.33 ± 0.22
31 | UGCGAGCAAUAUUACGCUUA | -1.98 ± 0.16 | -1.46 ± 0.22
32 | CAAGAGCAAUAUUACGUGGG | -3.54 ± 0.21 | -2.64 ± 0.19
33 | UCAUAGCAAUAUUACGGCUG | -1.33 ± 0.11 | -1.12 ± 0.14
34 | GGUAAGCAAUAUUACGAUUA | -0.734 ± 0.094 | -0.221 ± 0.11
35 | GGUGAGCAAUAUUACGACUC | -1.13 ± 0.15 | -0.634 ± 0.22
36 | AGCGAGCAAUAUUACGGUUU | -2.1 ± 0.18 | -0.574 ± 0.15
37 | UGCAAGCAAUAUUACGCCAC | – | -3.58 ± 0.42
38 | CAUUAGCAAUAUUACGCGUA | -1.76 ± 0.22 | -1.2 ± 0.18
39 | GCGCAGCAAUAUUACGUGCC | -3.26 ± 0.18 | -2.75 ± 0.29
40 | AUCUAGCAAUAUUACGUCCC | -0.434 ± 0.3 | -0.129 ± 0.27
41 | CAUCAGCAAUAUUACGAAGG | -0.555 ± 0.048 | -0.58 ± 0.066
42 | UUACAGCAAUAUUACGCCCA | -1.62 ± 0.32 | -0.254 ± 0.3
43 | ACCAAGCAAUAUUACGUGCC | -0.735 ± 0.082 | -0.801 ± 0.13
44 | UAAUAGCAAUAUUACGUGCG | 0.0578 ± 0.065 | -0.0439 ± 0.091
45 | CCCAAGCAAUAUUACGGCAG | -3.73 ± 0.17 | -1.65 ± 0.12
46 | CAGUAGCAAUAUUACGGGAC | -4.57 ± 0.28 | -3.56 ± 0.2
47 | UGGUAGCAAUAUUACGAUUG | -0.422 ± 0.05 | 0.168 ± 0.073
48 | GAACAGCAAUAUUACGCUUA | -1.2 ± 0.084 | -0.826 ± 0.099
